Reference: patent publication US12617863 (CCOA THERAPEUTICS, dated 2026)
Where a chain is given by its changes, count along the chain named.

Key:
[1] = target: T1, mouse platelet glycoprotein I(b)α (GPIbα) on wild-type mouse platelets (mouse, UniProt O35930 17-734); assay: flow cytometry, washed wild-type mouse platelets, Fab 5 µg/mL, FITC anti-human-Fab detection
T1 construct: whole, on cells; also called mouse GPIbα
T1 sequence (looked up): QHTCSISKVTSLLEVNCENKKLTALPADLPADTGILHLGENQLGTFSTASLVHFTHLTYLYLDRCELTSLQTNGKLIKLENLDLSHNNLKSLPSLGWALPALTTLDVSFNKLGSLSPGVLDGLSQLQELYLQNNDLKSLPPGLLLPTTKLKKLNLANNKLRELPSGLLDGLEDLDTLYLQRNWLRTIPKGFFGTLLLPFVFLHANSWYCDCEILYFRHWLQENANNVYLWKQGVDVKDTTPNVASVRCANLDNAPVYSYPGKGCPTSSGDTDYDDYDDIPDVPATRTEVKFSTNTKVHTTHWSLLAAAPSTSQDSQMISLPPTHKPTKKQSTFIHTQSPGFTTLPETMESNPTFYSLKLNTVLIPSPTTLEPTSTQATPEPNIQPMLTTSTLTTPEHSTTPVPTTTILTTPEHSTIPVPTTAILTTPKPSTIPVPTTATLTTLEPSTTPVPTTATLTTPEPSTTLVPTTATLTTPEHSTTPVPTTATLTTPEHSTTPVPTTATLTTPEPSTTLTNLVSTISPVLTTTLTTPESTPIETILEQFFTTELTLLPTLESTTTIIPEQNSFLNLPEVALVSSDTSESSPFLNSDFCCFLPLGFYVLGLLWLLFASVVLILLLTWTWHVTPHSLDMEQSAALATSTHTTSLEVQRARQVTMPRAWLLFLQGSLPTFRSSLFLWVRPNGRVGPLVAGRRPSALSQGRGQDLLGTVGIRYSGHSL
Description: (§1) Specificity. Human and mouse platelet-rich plasma (PRP) was prepared by centrifugation at 300 g for 7 min, and was washed by transferring 200 µL PRP into 10 mL PBS followed with 800 g centrifugation for 10 min. The supernatant was then removed and platelets were re-suspended in 200 µL PBS. Washed platelets (10 µL) were incubated with the different antibodies (2.5-5 µg/mL) in a 200 µL system at room temperature for 30 min, and detected by FITC labeled anti-human-Fab antibody. These eight selected humanized Fabs H001-H008, the scFv and the chimeric protein all bound to both human and wild-type mouse platelets, but not GPIbα deficient mouse platelets, indicating the specificity of the humanized Fabs to platelet GPIbα (FIGS. 4 and 19).

[2] = target: T2, human platelet glycoprotein I(b)α (GPIbα) on human platelets (human, UniProt P07359 17-652); assay: flow cytometry on washed platelets, 2.5-5 µg/mL, FITC anti-human-Fab detection
T2 construct: whole, on cells; also called human GPIbα
T2 sequence (P07359 17-652): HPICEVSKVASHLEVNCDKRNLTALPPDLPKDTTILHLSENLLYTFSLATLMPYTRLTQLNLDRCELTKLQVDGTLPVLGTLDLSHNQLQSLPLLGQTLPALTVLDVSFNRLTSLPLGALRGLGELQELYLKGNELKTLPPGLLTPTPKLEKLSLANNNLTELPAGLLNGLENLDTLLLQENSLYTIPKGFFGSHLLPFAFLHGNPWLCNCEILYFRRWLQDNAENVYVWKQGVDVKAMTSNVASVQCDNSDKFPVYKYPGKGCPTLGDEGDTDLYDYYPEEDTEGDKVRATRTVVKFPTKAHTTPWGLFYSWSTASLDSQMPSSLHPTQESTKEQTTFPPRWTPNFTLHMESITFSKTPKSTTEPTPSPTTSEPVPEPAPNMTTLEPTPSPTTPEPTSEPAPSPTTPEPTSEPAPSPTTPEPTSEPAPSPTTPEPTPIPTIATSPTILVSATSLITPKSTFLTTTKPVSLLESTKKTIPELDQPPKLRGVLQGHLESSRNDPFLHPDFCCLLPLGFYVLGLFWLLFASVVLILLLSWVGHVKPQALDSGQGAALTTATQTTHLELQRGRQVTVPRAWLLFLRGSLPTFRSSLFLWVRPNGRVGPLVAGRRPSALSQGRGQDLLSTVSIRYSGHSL
Description: as §1

[3] = target: T3, recombinant hexa-histidine tagged GPIbα; assay: SPR, His-tagged GPIbα held on Ni-NTA sensor, kinetics binding model
T3 construct: Held on a Ni-NTA SPR sensor by its hexa-histidine tag; also called recombinant GPIbα; immobilized GPIbα
T3 sequence (P07359 17-652): as above
Description: (§2) The biosensors were rinsed with copious amounts of anhydrous ethanol followed by 16 hour incubation in a solution of 1 mM mercaptopropionic acid in dimethylformamide. Following the incubation, SPR biosensors were rinsed with copious amounts of dimethylformamide followed by anhydrous ethanol and finally ddH₂O. The biosensors were then incubated in 40 mM 1-Ethyl-3-(3-dimethylaminopropyl) carbodiimide and 20 mM N-Hydroxysuccinimide dissolved in ddH₂O for 1 hour. Sensors were then rinsed with copious amounts of ddH₂O and then incubated with 100 mM Nα,Nα-Bis(carboxymethyl)-L-lysine hydrate for 4 hour. Following the incubation, the biosensing surfaces were rinsed with ddH2O. The final step before SPR experiments was to expose the functionalized biosensing surfaces with 100 mM NiCl₂ for 1 hour.
(§3) The SPR experiments were performed on a Biosensing Instrument 4000 SPR. The functionalized biosensors were loaded onto the instrument and the biosensor was equilibrated with running buffer (10 mM tris(hydroxymethyl) aminomethane, 140 mM NaCl, 20 mM Imidazole pH=7.4) at a flow rate of 40 μL/min. For binding measurements 25 μL of 500 nM hexa-histidine tagged GPIbα was injected over the biosensing surface immobilizing the GPIbα to the SPR sensor surface. […] The resulting data was analyzed using the instrument included SPR analysis software. […]

[4] = target: T4, dog platelet glycoprotein I(b)α (GPIbα) on dog platelets (dog, UniProt Q28256 17-677); assay: flow cytometry, dog platelets from PRP, FITC anti-human kappa chain detection
T4 construct: whole, on cells; also called dog GPIbα
T4 sequence (looked up): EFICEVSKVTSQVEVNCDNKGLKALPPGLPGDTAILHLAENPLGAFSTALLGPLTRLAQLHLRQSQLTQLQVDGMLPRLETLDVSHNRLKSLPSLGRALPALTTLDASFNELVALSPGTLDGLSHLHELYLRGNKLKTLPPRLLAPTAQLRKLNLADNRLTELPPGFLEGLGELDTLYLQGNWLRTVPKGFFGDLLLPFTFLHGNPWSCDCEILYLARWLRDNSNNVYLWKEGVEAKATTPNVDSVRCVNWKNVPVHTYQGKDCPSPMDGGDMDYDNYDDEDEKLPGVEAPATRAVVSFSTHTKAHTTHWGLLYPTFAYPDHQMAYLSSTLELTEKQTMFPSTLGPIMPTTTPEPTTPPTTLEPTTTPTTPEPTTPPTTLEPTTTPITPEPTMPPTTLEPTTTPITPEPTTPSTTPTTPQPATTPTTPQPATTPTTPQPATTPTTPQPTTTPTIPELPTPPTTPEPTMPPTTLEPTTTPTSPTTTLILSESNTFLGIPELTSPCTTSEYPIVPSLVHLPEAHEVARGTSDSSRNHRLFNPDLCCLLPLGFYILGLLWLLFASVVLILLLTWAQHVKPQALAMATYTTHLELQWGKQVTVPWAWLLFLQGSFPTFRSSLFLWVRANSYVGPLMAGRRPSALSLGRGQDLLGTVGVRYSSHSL
Description: (§4) Platelets (2×10^5) from mouse, dog, human, rat and rabbit PRP were transferred into 200 µL PBS containing a serial concentration of the Fabs H001 or H002 at 50, 16.7, 5.6, 1.8, 0.6, 0.2 nM (for mouse and dog), at 200, 67, 22, 7.4, 2.5, 0.8, 0.3, 0.1 nM (for human and rat) and at 500, 100, 20, 4, 0.8 nM (for rabbit). After a 30 min incubation, a detection antibody (FITC-labeled anti-human Kappa chain, 1:200) was added and incubated in darkness for 15 min. Flow cytometry was performed using the BD LSR Fortessa™ X-20. H001 and H002 also bound to rat, dog and rabbit platelets (FIG. 5).

[5] = target: T2, human platelet glycoprotein I(b)α …; assay: flow cytometry, human platelets from PRP, FITC anti-human kappa chain detection
Description: as §4

[6] = target: T3, recombinant hexa-histidine tagged GPIbα; assay: SPR, size of shifts against concentration, one site binding model
Description: The SPR experiments were performed on a Biosensing Instrument 4000 SPR. The functionalized biosensors were loaded onto the instrument and the biosensor was equilibrated with running buffer (10 mM tris(hydroxymethyl) aminomethane, 140 mM NaCl, 20 mM Imidazole pH=7.4) at a flow rate of 40 μL/min. For binding measurements 25 μL of 500 nM hexa-histidine tagged GPIbα was injected over the biosensing surface immobilizing the GPIbα to the SPR sensor surface. The baseline was allowed to equilibrate followed by injection of 25 μL of the desired concentration of ligand (either Fab H001 or control). Biosensing surfaces were regenerated between ligand injections by injection of 100 μL of 500 mM imidazole in running buffer, followed by 100 μL of 100 mM NiCl_2. The resulting data was analyzed using the instrument included SPR analysis software.
GPIbα immobilized SPR biosensors were exposed to 500, 100, 50 and 10 nM of Fab H001 antibody and 100 nM control antibody (PSI E1, an antibody against GPIIbIIIa). […] In contrast the Fab H001 antibody clearly bound GPIbα producing clear SPR shifts with only partial dissociation after the end of the injection (FIG. 7A).

[7] = target: T5, rat platelet glycoprotein I(b)α (GPIbα) on rat platelets (rat); assay: flow cytometry, rat platelets from PRP, FITC anti-human kappa chain detection
T5 construct: whole, on cells; also called rat GPIbα
Description: as §4

[8] = target: T3, recombinant hexa-histidine tagged GPIbα; assay: SPR steady-state response against H001 concentration, His-tagged GPIbα immobilised
Description: as §2, §3

[9] = target: T1, mouse platelet glycoprotein I(b)α …; assay: flow cytometry, mouse platelets from PRP, FITC anti-human kappa chain detection
Description: as §4

B1: humanized Fab H004 (Fab, V domains shown)
VH: EVQLVESGGGLVQPGGSLRLSCAASGFTFSSFAMSWVRQAPGKGLEWVSSITSAGTPYYPDSVLGRFTISRDNSKNTLYLQMNSLRAEDTAVYYCAKSRGYEDYFDYWGQGTLVTVSS
VL: DIQMTQSPSSLSASVGDRVTITCKSSQSLLNSRNQKNYLAWYQQKPGKAPKLLIYFTSTRESGVPSRFSGSGSGTDFTLTISSLQPEDFATYYCQQHYSSPWTFGQGTKVEIKR
notes: Fab with human IgG1 CH1 and human kappa constant region; also called VH3 + VL2
binding result [1]: binds | binding result [2]: binds

B2: humanized Fab H001 (Fab, V domains shown)
VH: B1 VH with E1Q, Q13K, V37I, S74A, T77S, K97R
VL: B1 VL
notes: Fab with human IgG1 CH1 and human kappa constant region; also called Fab H001 antibody; VH1 + VL2
Kd [3]: 4.4 nM | koff [3]: 0.11 s⁻¹ | EC50 (read off the curve) [4]: ~3 nM | EC50 (read off the curve) [5]: ~10 nM | Kd [6]: 8 nM | EC50 (read off the curve) [7]: ~3 nM | EC50 (read off the curve) [8]: ~80 nM | binding result [1]: binds

B3: humanized Fab H007 (Fab, V domains shown)
VH: B1 VH with E1Q, L11V, G16R, S49A, K97R
VL: B1 VL
notes: Fab with human IgG1 CH1 and human kappa constant region; also called VH4 + VL2
binding result [1]: binds | binding result [2]: binds

B4: humanized Fab H005 (Fab, V domains shown)
VH: B1 VH
VL: DIVMTQSPLSLPVTPGEPASISCKSSQSLLNSRNQKNYLAWYLQKPGQSPQLLIYFTSTRESGVPDRFSGSGSGTDFTLKISRVEAEDVGVYYCQQHYSSPWTFGQGTKVEIKR
notes: Fab with human IgG1 CH1 and human kappa constant region; also called VH3 + VL3
binding result [1]: binds | binding result [2]: binds

B5: humanized Fab H002 (Fab, V domains shown)
VH: B1 VH with E1Q, Q13K, V37I, S74A, T77S, K97R
VL: B4 VL
notes: Fab with human IgG1 CH1 and human kappa constant region; also called Fab H002 antibody; VH1 + VL3
EC50 (read off the curve) [4]: ~2 nM | binding result [5]: binds | EC50 (read off the curve) [7]: ~3 nM | binding result [9]: binds

B6: humanized Fab H008 (Fab, V domains shown)
VH: B1 VH with E1Q, L11V, G16R, S49A, K97R
VL: B4 VL
notes: Fab with human IgG1 CH1 and human kappa constant region; also called VH4 + VL3
binding result [1]: binds | binding result [2]: binds

B7: humanized Fab H003 (Fab, V domains shown)
VH: B1 VH with Q13K, S74A, T77S, K97R, L113T, S118R
VL: DIVMTQSPDSLAVSLGERATINCKSSQSLLNSRNQKNYLAWYQQKPGQPPKLLIYFTSTRESGVPDRFSGSGSGTDFTLTISSLQAEDVAVYYCQQHYSSPWTFGGGTKLEIKR
notes: Fab with human IgG1 CH1 and human kappa constant region; also called VH2 + VL1
binding result [1]: binds | binding result [2]: binds

B8: humanized Fab H006 (Fab, V domains shown)
VH: B1 VH with E1Q, L11V, G16R, S49A, K97R
VL: B7 VL
notes: Fab with human IgG1 CH1 and human kappa constant region; also called VH4 + VL1
binding result [1]: binds | binding result [2]: binds
